We go through two sequences from article doi:10.1101/2025.06.23.656378.

One may read the Kd as the concentration at which binding is half-saturated.

The data set concerns poly-L-lysine (PLL, 30-70 kDa, Sigma P2636). Briefly: EMSA. As to conditions: 10 mM Tris pH 7.5, 100 mM KCl, 5% glycerol, 30 min at room temperature. In general terms: Mobility shift assays separate free from complexed probe on a gel.

Turning to “TTAGAATTAGAATTAGAATTAGAA [dTERRA_M2 [TTAGAA]4]”, the dissociation constant Kd came to 34 nM.

“UUAGAAUUAGAAUUAGAAUUAGAA [rTERRA_M2 [UUAGAA]4]” yielded a Kd of 7.4 nM.
